# Assay results published in patent US7291332B2, “Inflammatory mediator antagonists” (SmithKline Beecham Corporation, priority 1998, dated 2007).
# B1: (14) T21A: OSM-GST fusion, alanine for Thr 21 (protein)
# chain: AAIGSCSKEYRVLLGQLQKQADLMQDTSRLLDPYIRIQGLDVPKLREHCRERPGAFPSEETLRGLGRRGFLQTLNATLGCVLHRLADLEQRLPKAQDLERSGLNIEDLEKLQMARPNILGLRNNIYCMAQLLDNSDTAEPTKAGRGASQPPTPTPASDAFQRKLEGCRFLHGYHRFMHSVGRVFSKWGESPNRSRR
# modifications: left off: a dimerising Fc or GST; large carriers; small tags and cut ends
# B2: (24) Y126A: OSM-GST fusion, alanine for Tyr 126 (protein)
# chain: AAIGSCSKEYRVLLGQLQKQTDLMQDTSRLLDPYIRIQGLDVPKLREHCRERPGAFPSEETLRGLGRRGFLQTLNATLGCVLHRLADLEQRLPKAQDLERSGLNIEDLEKLQMARPNILGLRNNIACMAQLLDNSDTAEPTKAGRGASQPPTPTPASDAFQRKLEGCRFLHGYHRFMHSVGRVFSKWGESPNRSRR
# modifications: left off: a dimerising Fc or GST; large carriers; small tags and cut ends
# B3: (25) Y130A: OSM-GST fusion, alanine for Gln 130 (protein)
# chain: AAIGSCSKEYRVLLGQLQKQTDLMQDTSRLLDPYIRIQGLDVPKLREHCRERPGAFPSEETLRGLGRRGFLQTLNATLGCVLHRLADLEQRLPKAQDLERSGLNIEDLEKLQMARPNILGLRNNIYCMAALLDNSDTAEPTKAGRGASQPPTPTPASDAFQRKLEGCRFLHGYHRFMHSVGRVFSKWGESPNRSRR
# modifications: left off: a dimerising Fc or GST; large carriers; small tags and cut ends
# B4: (26) Q25A: OSM-GST fusion, alanine for Gln 25 (protein)
# chain: AAIGSCSKEYRVLLGQLQKQTDLMADTSRLLDPYIRIQGLDVPKLREHCRERPGAFPSEETLRGLGRRGFLQTLNATLGCVLHRLADLEQRLPKAQDLERSGLNIEDLEKLQMARPNILGLRNNIYCMAQLLDNSDTAEPTKAGRGASQPPTPTPASDAFQRKLEGCRFLHGYHRFMHSVGRVFSKWGESPNRSRR
# modifications: left off: a dimerising Fc or GST; large carriers; small tags and cut ends
# B5: (27) D26A: OSM-GST fusion, alanine for Asp 26 (protein)
# chain: AAIGSCSKEYRVLLGQLQKQTDLMQATSRLLDPYIRIQGLDVPKLREHCRERPGAFPSEETLRGLGRRGFLQTLNATLGCVLHRLADLEQRLPKAQDLERSGLNIEDLEKLQMARPNILGLRNNIYCMAQLLDNSDTAEPTKAGRGASQPPTPTPASDAFQRKLEGCRFLHGYHRFMHSVGRVFSKWGESPNRSRR
# modifications: left off: a dimerising Fc or GST; large carriers; small tags and cut ends
# B6: (19) L119A: OSM-GST fusion, alanine for Leu 119 (protein)
# chain: AAIGSCSKEYRVLLGQLQKQTDLMQDTSRLLDPYIRIQGLDVPKLREHCRERPGAFPSEETLRGLGRRGFLQTLNATLGCVLHRLADLEQRLPKAQDLERSGLNIEDLEKLQMARPNIAGLRNNIYCMAQLLDNSDTAEPTKAGRGASQPPTPTPASDAFQRKLEGCRFLHGYHRFMHSVGRVFSKWGESPNRSRR
# modifications: left off: a dimerising Fc or GST; large carriers; small tags and cut ends
# B7: (15) D22: OSM-GST fusion, alanine for Asp 22 (protein)
# chain: AAIGSCSKEYRVLLGQLQKQTALMQDTSRLLDPYIRIQGLDVPKLREHCRERPGAFPSEETLRGLGRRGFLQTLNATLGCVLHRLADLEQRLPKAQDLERSGLNIEDLEKLQMARPNILGLRNNIYCMAQLLDNSDTAEPTKAGRGASQPPTPTPASDAFQRKLEGCRFLHGYHRFMHSVGRVFSKWGESPNRSRR
# modifications: left off: a dimerising Fc or GST; large carriers; small tags and cut ends
# B8: (16) M113A: OSM-GST fusion, alanine for Met 113 (protein)
# chain: AAIGSCSKEYRVLLGQLQKQTDLMQDTSRLLDPYIRIQGLDVPKLREHCRERPGAFPSEETLRGLGRRGFLQTLNATLGCVLHRLADLEQRLPKAQDLERSGLNIEDLEKLQAARPNILGLRNNIYCMAQLLDNSDTAEPTKAGRGASQPPTPTPASDAFQRKLEGCRFLHGYHRFMHSVGRVFSKWGESPNRSRR
# modifications: left off: a dimerising Fc or GST; large carriers; small tags and cut ends
# B9: (17) P116A: OSM-GST fusion, alanine for Pro 116 (protein)
# chain: AAIGSCSKEYRVLLGQLQKQTDLMQDTSRLLDPYIRIQGLDVPKLREHCRERPGAFPSEETLRGLGRRGFLQTLNATLGCVLHRLADLEQRLPKAQDLERSGLNIEDLEKLQMARANILGLRNNIYCMAQLLDNSDTAEPTKAGRGASQPPTPTPASDAFQRKLEGCRFLHGYHRFMHSVGRVFSKWGESPNRSRR
# modifications: left off: a dimerising Fc or GST; large carriers; small tags and cut ends
# B10: (18) N117A: OSM-GST fusion, alanine for Asn 117 (protein)
# chain: AAIGSCSKEYRVLLGQLQKQTDLMQDTSRLLDPYIRIQGLDVPKLREHCRERPGAFPSEETLRGLGRRGFLQTLNATLGCVLHRLADLEQRLPKAQDLERSGLNIEDLEKLQMARPAILGLRNNIYCMAQLLDNSDTAEPTKAGRGASQPPTPTPASDAFQRKLEGCRFLHGYHRFMHSVGRVFSKWGESPNRSRR
# modifications: left off: a dimerising Fc or GST; large carriers; small tags and cut ends
# B11: (21) R122A: OSM-GST fusion, alanine for Arg 122 (protein)
# chain: AAIGSCSKEYRVLLGQLQKQTDLMQDTSRLLDPYIRIQGLDVPKLREHCRERPGAFPSEETLRGLGRRGFLQTLNATLGCVLHRLADLEQRLPKAQDLERSGLNIEDLEKLQMARPNILGLANNIYCMAQLLDNSDTAEPTKAGRGASQPPTPTPASDAFQRKLEGCRFLHGYHRFMHSVGRVFSKWGESPNRSRR
# modifications: left off: a dimerising Fc or GST; large carriers; small tags and cut ends
# System: HepG2 B6 cells (STAT-sPAP reporter)
# Experiment: OSM-GST mutant driven sPAP production in HepG2 B6 assay
# Type: cell-based, human
# Conditions: for 'Potency': relative to wild type, from Mean %
# Procedure: HepG2 B6 cells were plated into 96 well plates to a final concentration of 3×10^4 cells per well in 100 μl of media (DMEM (Sigma), 10% HI FCS, 1% non-essential amino acids, 2 mM Glutamine, 500 μg ml^−1 G418, (all from Life Technologies)). Cells were allowed to equilibrate for 48 hours. Putative anti-OSM solid compounds were made up to a stock dilution of 20 mM in DMSO and serially diluted 1:3 in DMSO. This was then further diluted in HepG26B assay media, this is as above media but with 1% heat inactivated FCS, low alkaline phosphatase activity (Life Technologies) substituted for 10% HI FCS. Compounds were diluted 1:3 from a top concentration of […] to a final concentration of 0.09 μM in a final concentration of 1% DMSO. (That is 200, 66.67, 22.22, 7.41, 2.47, 0.82, 0.27, 0.09 and 0 μM). The old media was removed from the wells and replaced with diluted compound also containing 2 ng ml^−1 OSM (R&D Systems), cells were incubated for a further 20 hours. Each dilution was performed in triplicate. 20 μl of media was removed from each well and assayed for sPAP activity using pNPP (p-Nitrophenyl phosphate; Sigma), as a substrate. Endogenous alkaline phosphatase is blocked with L-homoarginine. Optical density of substrate is read at 405-650 nm. Concentration of compound is plotted against OD as a measure of sPAP produced and can be analysed to determine IC50 values.
# The assay described in Example 7b above was employed. OSM-GST mutants were diluted to a concentration of 100 ng ml^−using the known concentration of intact OSM mutants generated in Example 9b. A wild type OSM-GST was included for control purposes. Dilutions were made in HepG2 B6 media with 1% heat inactivated FCS, low alkaline phosphatase activity. Serial 1:3 dilutions were then made. (100; 33.33; 11.11; 3.7; 1.23; 0.4 ng ml^−1). 3×10^4 HepG2 B6 were dispensed into individual well of a 96 well plate in 100 μl of media. Cells were allowed to equilibrate for 48 hours. Media was then removed and replaced with 100 μl of diluted OSM-GST mutant. Cells were incubated for a further 20 hours. Each dilution was performed in triplicate. 20 μl of media was removed and assayed for sPAP using pNPP as a substrate. Endogenous ALP was blocked with L-homoarginine. O.D. was read at 405-650 nm. The experiment was repeated twice.
Molecule,Expt 1 EC50 [µg/mL],Expt 2 EC50 [µg/mL],'Potency',Expt 3 EC50 [µg/mL]
B1,0.017,0.0105,MORE (<80% More potent),–
B2,0.093,0.0103,LESS (>120% Less potent than wild type),0.0408
B3,0.0125,0.0082,MORE (<80% More potent),–
B4,0.0133,0.013,MORE (<80% More potent),–
B5,0.0195,0.0255,EQUAL (80-120% Equal potency),–
B6,0.0278,0.023,EQUAL (80-120% Equal potency),–
B7,0.0367,0.016,EQUAL (80-120% Equal potency),–
B8,0.0256,0.025,EQUAL (80-120% Equal potency),–
B9,0.025,0.015,MORE (<80% More potent),–
B10,0.058,0.0425,LESS (>120% Less potent than wild type),–
B11,0.0324,0.0138,EQUAL (80-120% Equal potency),0.0473
